One data set has as its target T1, TGFβ2 (UniProt P61812 P61812:303-414).
T1 sequence: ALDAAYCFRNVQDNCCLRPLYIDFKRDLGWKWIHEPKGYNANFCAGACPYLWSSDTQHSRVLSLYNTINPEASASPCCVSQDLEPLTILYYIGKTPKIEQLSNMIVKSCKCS
The experiment in a line: competition; monodentate control with 5-bp extension; competes similarly to bidentates with linkers of 30 nt or more. To be noted: chain copies: 2 (inferred, homodimer).

The target of data set [1] is T2, PDGF-BB (UniProt P01127 P01127:82-190). As to the kind of experiment: 10 or 100 nM splint DNA enhances affinity of bidentate aptamer. As to conditions: chain copies: 2 (inferred, homodimer); linker region hybridised to 40-nt splint oligonucleotide. An excerpt:
(§1) High molecular weight aptamer compositions capable of binding to platelet derived growth factor (PDGF) were produced using the following methods. A dimeric, or bidentate PDGF aptamer having the sequence shown in FIG. 4(A) was synthesized using standard reagents (oligonucleotides supplied by Integrated DNA Technologies, Coralville, Iowa). As shown in FIG. 4(B), the enhanced affinity of the bidentate aptamer to its target (either PDGF BB or AB) was greatest at higher protein concentrations where the binding conditions were 25° C. in 1×PBS with an RNA ligand concentration of <10 pM. […] This enhancement could reflect a splint-dependent reduction in rotational degrees of freedom within the linker region, leading to an increase in the effective concentration of the bidentate ligand. The addition of splint DNA to the monovalent aptamer to PDGF-BB had no effect on binding affinity (FIG. 5).

The next data set addresses PDGF-AB (UniProt P04085;P01127 P04085:87-211,P01127:82-190). The experiment in a line: enhanced affinity stated for PDGF BB or AB; 1x PBS, 25 C, ligand <10 pM.
Excerpt: as §1

In data set [2] the target is T2, PDGF-BB. The experiment in a line: enhanced affinity vs monomer, greatest at higher protein concentration; 1x PBS, 25 C, ligand <10 pM. To be noted: chain copies: 2 (inferred, homodimer).
Excerpt: as §1

T2 sequence (P01127 82-190, one chain of several): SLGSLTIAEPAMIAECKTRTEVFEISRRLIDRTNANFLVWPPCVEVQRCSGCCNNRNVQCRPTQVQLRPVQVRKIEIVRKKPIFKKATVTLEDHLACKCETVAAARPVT
Chain of PDGF-AB (P01127 82-190, chain 2 of 2, other chains not shown): as the sequence (P01127 82-190, one chain of several) above

Regarding GCGCCGAGGUUAUUACAGAGUCUGUAUAGCUGUACUCGGCGC (ssRNA, 2'-F pyrimidines (inferred)) [ARC77 with 5-bp terminal extension], in the data set with TGFβ2, the binding result is reported as “binds”.

B1: PDGF bidentate aptamer + splint DNA (structured_DNA)
DNA 1: TACTCAGGGCACTGCAAGCAATTGTGGTCCCAATGGGCTGAGTATGTGGTCTATGTCGTCGTTCGCTAGTAGTTCCTGGGCTGCACTCGAGGCGTAGAATTCCCCCGATGCGCGCTGTTCTTACTCAGGGCACTGCAAGCAATTGTGGTCCCAATGGGCTGAGTAT
DNA 2: AAAGGAATTCTACGCCTCGAGTGCAGCCCAGGAACTATTT
Consider B1, for which, in the data set with PDGF-BB [1], the binding result is “binds”.

B2: PDGF bidentate aptamer (ssDNA)
DNA: TACTCAGGGCACTGCAAGCAATTGTGGTCCCAATGGGCTGAGTATGTGGTCTATGTCGTCGTTCGCTAGTAGTTCCTGGGCTGCACTCGAGGCGTAGAATTCCCCCGATGCGCGCTGTTCTTACTCAGGGCACTGCAAGCAATTGTGGTCCCAATGGGCTGAGTAT
Regarding B2, the binding result with PDGF-AB and with PDGF-BB [2] was “binds” each time.

(Values after patent publication US20040180360, “Multivalent aptamer therapeutics with improved pharmacodynamic properties and methods of making and using the same” (published 2004).)
